Here are results for one molecule from paper PMC10716038, “Talin and kindlin use integrin tail allostery and direct binding to activate integrins” (Nature Structural & Molecular Biology, 2023).

“And” between values parts separate entries of the source, which are not always exact repeats. Identical values can stand only once. No end group written: not given here.

Conditions in all cases: both partners purified
Assay [1] addresses T1, talin-2 head domain (THD2) (UniProt Q71LX4 1-408).
T1 construct: talin-2 (TLN2) head domain (THD), residues 1-408; source: E. coli (DE3) Rosetta 2, purified (IMAC, SEC); not shown: His10-SUMO, N-terminal, cleaved
Nature of the assay: MST; apparent; THD1 titrated to 488–β1-CT or THD2 to 488–β3-CT in the presence of 30 µM KIND2; MST buffer.

Assay [2] addresses T2, talin-1 head domain (THD1) (UniProt P26039 1-405).
T2 construct: talin-1 (TLN1) head domain (THD), residues 1-405; murine TLN1 cDNA is named only for the cell lines; also called WT; source: E. coli (DE3) Rosetta 2, purified (IMAC, SEC); not shown: His10-SUMO, N-terminal, cleaved
Description: MST; unlabelled protein titrated to 50-200 nM ATTO 488-labelled β-CT peptide, no third protein; 20 mM Tris pH 7.5, 200 mM NaCl, 1 mM TCEP, 0.05% Tween-20; Kd of individual titrations (in S0002 mean and sd, n = 2).

A further assay deals with T3, THD1 KKAA (UniProt P26039 1-405, KKAA (KK402/403)).
T3 construct: the sheet prints only 'KKAA'; source: E. coli (DE3) Rosetta 2, purified (IMAC, SEC); not shown: His10-SUMO, N-terminal, cleaved
T3 sequence (P26039 other isoform, or with tags, fused parts or gaps KKAA (KK402/403) | KKAA (KK402/403)): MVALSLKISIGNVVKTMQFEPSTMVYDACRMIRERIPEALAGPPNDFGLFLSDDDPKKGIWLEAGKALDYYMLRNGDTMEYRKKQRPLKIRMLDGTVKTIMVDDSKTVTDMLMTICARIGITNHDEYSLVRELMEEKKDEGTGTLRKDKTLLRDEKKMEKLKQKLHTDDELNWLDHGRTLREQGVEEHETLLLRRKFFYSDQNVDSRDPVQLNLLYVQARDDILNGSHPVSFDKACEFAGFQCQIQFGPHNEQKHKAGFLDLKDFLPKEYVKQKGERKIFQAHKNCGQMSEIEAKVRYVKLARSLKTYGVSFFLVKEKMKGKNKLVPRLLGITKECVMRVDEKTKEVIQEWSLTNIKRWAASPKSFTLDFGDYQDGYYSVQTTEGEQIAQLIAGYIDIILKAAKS
The assay is described as above.

The target in the next assay is T4, THD1 K401A (UniProt P26039 1-405, K401A).
T4 construct: talin-1 (TLN1) head domain, residues 1-405, K401A; source: E. coli (DE3) Rosetta 2, purified (IMAC, SEC); not shown: His10-SUMO, N-terminal, cleaved
T4 sequence (P26039 1-405 K401A): as the sequence (P26039 other isoform, or with tags, fused parts or gaps KKAA (KK402/403) | KKAA (KK402/403)) above, with K401A, A402K, A403K counted along it
The description is as above.

A further assay concerns the target T5, THD1 I398A (UniProt P26039 1-405, I398A).
T5 construct: talin-1 (TLN1) head domain, residues 1-405, I398A; source: E. coli (DE3) Rosetta 2, purified (IMAC, SEC); not shown: His10-SUMO, N-terminal, cleaved
Nature of the assay: MST; apparent; THD1 or THD1 mutants titrated to 488–β3-CT in the presence of 30-40 µM KIND2; MST buffer.

The target in assay [3] is T2, talin-1 head domain (THD1). Described as above.
The next assay concerns the target T6, THD1 K403E (UniProt P26039 1-405, K403E).
T6 construct: talin-1 (TLN1) head domain, residues 1-405, K403E; source: E. coli (DE3) Rosetta 2, purified (IMAC, SEC); not shown: His10-SUMO, N-terminal, cleaved
The description is as above.

Another assay addresses T7, THD1 Y395A (UniProt P26039 1-405, Y395A).
T7 construct: talin-1 (TLN1) head domain, residues 1-405, Y395A; source: E. coli (DE3) Rosetta 2, purified (IMAC, SEC); not shown: His10-SUMO, N-terminal, cleaved
Described as above.

For a further assay, the target named is T8, THD1 K404A (UniProt P26039 1-405, K404A).
T8 construct: talin-1 (TLN1) head domain, residues 1-405, K404A; source: E. coli (DE3) Rosetta 2, purified (IMAC, SEC); not shown: His10-SUMO, N-terminal, cleaved
T8 sequence (P26039 1-405 K404A): as the sequence (P26039 other isoform, or with tags, fused parts or gaps KKAA (KK402/403) | KKAA (KK402/403)) above, with A402K, A403K, K404A counted along it
The description is as above.

The target of another assay is T9, THD1 Δ401-405 (UniProt P26039 1-405, Δ401-405).
T9 construct: source: E. coli (DE3) Rosetta 2, purified (IMAC, SEC); not shown: His10-SUMO, N-terminal, cleaved
T9 sequence (P26039 1-400, stated change not applied): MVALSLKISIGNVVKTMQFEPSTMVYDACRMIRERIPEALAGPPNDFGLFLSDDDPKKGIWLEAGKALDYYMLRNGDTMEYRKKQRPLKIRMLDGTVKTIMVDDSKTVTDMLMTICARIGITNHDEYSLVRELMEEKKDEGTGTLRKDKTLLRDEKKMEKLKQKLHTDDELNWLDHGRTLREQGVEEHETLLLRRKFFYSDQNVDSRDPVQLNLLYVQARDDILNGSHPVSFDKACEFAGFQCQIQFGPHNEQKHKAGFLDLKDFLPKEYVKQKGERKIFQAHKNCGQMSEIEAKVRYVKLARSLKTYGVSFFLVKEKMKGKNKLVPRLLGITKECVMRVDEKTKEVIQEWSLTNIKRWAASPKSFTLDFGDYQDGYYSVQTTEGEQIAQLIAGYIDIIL
The description is as above.

In another assay the target is T10, THD1 K403A (UniProt P26039 1-405, K403A).
T10 construct: talin-1 (TLN1) head domain, residues 1-405, K403A; source: E. coli (DE3) Rosetta 2, purified (IMAC, SEC); not shown: His10-SUMO, N-terminal, cleaved
T10 sequence (P26039 1-405 K403A): as the sequence (P26039 other isoform, or with tags, fused parts or gaps KKAA (KK402/403) | KKAA (KK402/403)) above, with A402K counted along it
Described as above.

The next assay deals with T11, THD1 I396A (UniProt P26039 1-405, I396A).
T11 construct: talin-1 (TLN1) head domain, residues 1-405, I396A; source: E. coli (DE3) Rosetta 2, purified (IMAC, SEC); not shown: His10-SUMO, N-terminal, cleaved
T11 sequence (P26039 1-405 I396A): as the sequence (P26039 other isoform, or with tags, fused parts or gaps KKAA (KK402/403) | KKAA (KK402/403)) above, with I396A, A402K, A403K counted along it
Described as above.

Another assay addresses T12, THD1 I399A (UniProt P26039 1-405, I399A).
T12 construct: talin-1 (TLN1) head domain, residues 1-405, I399A; source: E. coli (DE3) Rosetta 2, purified (IMAC, SEC); not shown: His10-SUMO, N-terminal, cleaved
Described as above.

T1 sequence (Q71LX4 1-408): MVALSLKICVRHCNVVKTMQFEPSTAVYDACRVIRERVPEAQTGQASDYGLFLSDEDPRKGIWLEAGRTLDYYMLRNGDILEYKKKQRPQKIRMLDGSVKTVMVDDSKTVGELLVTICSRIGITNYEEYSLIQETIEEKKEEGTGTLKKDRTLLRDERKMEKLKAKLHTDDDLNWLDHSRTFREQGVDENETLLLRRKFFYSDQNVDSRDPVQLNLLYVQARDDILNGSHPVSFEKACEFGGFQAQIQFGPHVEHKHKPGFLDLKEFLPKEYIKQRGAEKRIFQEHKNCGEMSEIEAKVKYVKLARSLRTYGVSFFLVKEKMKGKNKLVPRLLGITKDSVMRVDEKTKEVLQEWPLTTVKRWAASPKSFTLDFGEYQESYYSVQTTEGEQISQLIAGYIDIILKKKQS
T2 sequence (P26039 1-405): as the sequence (P26039 other isoform, or with tags, fused parts or gaps KKAA (KK402/403) | KKAA (KK402/403)) above, with A402K, A403K counted along it
T5 sequence (P26039 1-405 I398A): as the sequence (P26039 other isoform, or with tags, fused parts or gaps KKAA (KK402/403) | KKAA (KK402/403)) above, with I398A, A402K, A403K counted along it
T6 sequence (P26039 1-405 K403E): as the sequence (P26039 other isoform, or with tags, fused parts or gaps KKAA (KK402/403) | KKAA (KK402/403)) above, with A402K, A403E counted along it
T12 sequence (P26039 1-405 I399A): as the sequence (P26039 other isoform, or with tags, fused parts or gaps KKAA (KK402/403) | KKAA (KK402/403)) above, with I399A, A402K, A403K counted along it
T7 sequence (P26039 1-405 Y395A): as the sequence (P26039 other isoform, or with tags, fused parts or gaps KKAA (KK402/403) | KKAA (KK402/403)) above, with Y395A, A402K, A403K counted along it

B1: ATTO 488-labeled integrin β3 cytoplasmic tail (488–β3-CT) (peptide, UniProt O54890 741-787, looked up)
peptide: {ATTO 488}-KLLITIHDRKEFAKFEEERARAKWDTANNPLYKEATSTFTNITYRGT
notes: integrin β3 cytoplasmic tail (β3-CT); source: synthetic peptide (MPIB Core Facility)
For B1, the Kd in assay [1] was 39.1 µM and 36.2 µM and 54 µM; in assay [2] it was 105 µM; in the assay with THD1 KKAA, 62.1 µM; with THD1 K401A, 82.5 µM; with THD1 I398A, 155 µM; in [3], 95 µM. Moreover, the Kd is 116 µM with THD1 K403E; 42 µM with THD1 Y395A; 116 µM with THD1 K404A; 560 µM with THD1 Δ401-405; 114 µM in the assay with THD1 K403A; 551 µM with THD1 I396A. In the assay with THD1 I399A, the Kd came to 91 µM.
